Experiment [1] concerns the target T1, mouse TIGIT on mouse TIGIT-overexpressing CHO cells (mouse, UniProt P86176 29-249).
T1 construct: whole, on cells; also called mTIGIT/CHO; mTIGIT
T1 sequence (looked up): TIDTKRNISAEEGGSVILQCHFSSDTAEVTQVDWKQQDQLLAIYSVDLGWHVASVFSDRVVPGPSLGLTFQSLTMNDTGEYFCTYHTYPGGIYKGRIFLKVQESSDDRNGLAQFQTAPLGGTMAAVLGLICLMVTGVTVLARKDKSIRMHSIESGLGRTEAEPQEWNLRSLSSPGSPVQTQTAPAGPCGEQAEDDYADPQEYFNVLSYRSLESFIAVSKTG
The experiment can be described thus: cell-based ELISA on mTIGIT/CHO cells, detected by anti-mouse IgG. The procedure: (§1) FIG. 1A and FIG. 1B are graphs showing identification and characterization of anti-mouse TIGIT monoclonal antibody 18G10. FIG. 1A is a line graph showing binding of anti-mouse TIGIT, clone 18G10, was measured by a cell-based ELISA using mouse TIGIT-overexpressing CHO cells (mTIGIT/CHO). 18G10 was serially diluted as indicated. After 30 min. of incubation, unbound 18G10 antibody was washed out, and the bound 18G10 antibodies were detected using an anti-mouse IgG reagent (closed circles). When the 18G10 was bound in the indicated serial dilutions on mTIGIT/CHO, 8 μg/ml recombinant mouse CD155:hIgG1-Fc (rmCD155) was added to the plate in order to verify whether 18G10 blocked the interaction of rmCD155 with mTIGIT/CHO. After 40 minutes of incubation, unbound recombinant CD155 was washed out, and the bound recombinant CD155 was detected by anti-human IgG reagent (open circles). […] Chimeric anti-TIGIT (18G10):mIgG2a, anti-TIGHT (18G10):mIgG1-[D265A], and isotype controls with mIgG2a or mIgG1-[D265A] isotype were loaded to ELISA plates coated with 1 μg/ml of (left panel) recombinant mouse TIGIT protein or (right panel) goat anti-mouse IgG-Fc antibody. Bound antibodies to each plate were detected. Note: mIgG1* indicates mIgG1-[D265A].

Experiment [2] has as its target T2, recombinant mouse TIGIT protein (mouse, UniProt P86176 29-148, limits assumed).
T2 construct: also called mTIGIT recombinant protein; mTIGIT
T2 sequence (looked up): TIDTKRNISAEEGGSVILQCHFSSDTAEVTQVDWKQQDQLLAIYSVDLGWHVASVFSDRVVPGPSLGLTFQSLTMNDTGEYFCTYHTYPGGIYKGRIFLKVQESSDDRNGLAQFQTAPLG
The experiment can be described thus: ELISA, plate coated with 1 µg/ml recombinant mouse TIGIT protein (FIG. 1B). As for the experimental part: as §1
In general terms: An ELISA detects its analyte on a solid surface through an enzyme-linked reagent.

B1: anti-mouse TIGIT monoclonal antibody 18G10 (antibody, V domains shown)
VH: QVQLMESGPGLVQPSQTLSLTCTVSGFPLTSYTVHWVRQPPGKGLEWIGAIWSSGSTDYNSALKSRLNINRDSSKSQVFLKMNSLQTEDTAIYFCTKSGWAFFDYWGQGVMVTVSS
VL: DIQMTQSPSLLSASVGDRVTLNCIASQNIYKSLAWYQLKLGEAPKLLIYNANSLQAGIPSRFSGSGSGTDFALTISGLQPEDVATYFCQQYSGGYTFGAGTKLELK
notes: also called anti-mouse TIGIT, clone 18G10; rat anti-mouse TIGIT (mTIGIT) antibody clone 18G10
For B1, in experiment [1], the binding result is “binds”.

B2: chimeric anti-TIGIT (18G10):mIgG2a (antibody)
heavy: QVQLMESGPGLVQPSQTLSLTCTVSGFPLTSYTVHWVRQPPGKGLEWIGAIWSSGSTDYNSALKSRLNINRDSSKSQVFLKMNSLQTEDTAIYFCTKSGWAFFDYWGQGVMVTVSSAKTTAPSVYPLAPVCGDTTGSSVTLGCLVKGYFPEPVTLTWNSGSLSSGVHTFPAVLQSDLYTLSSSVTVTSSTWPSQSITCNVAHPASSTKVDKKIEPRGPTIKPCPPCKCPAPNLLGGPSVFIFPPKIKDVLMISLSPIVTCVVVDVSEDDPDVQISWFVNNVEVHTAQTQTHREDYNSTLRVVSALPIQHQDWMSGKEFKCKVNNKDLPAPIERTISKPKGSVRAPQVYVLPPPEEEMTKKQVTLTCMVTDFMPEDIYVEWTNNGKTELNYKNTEPVLDSDGSYFMYSKLRVEKKNWVERNSYSCSVVHEGLHNHHTTKSFSRTPGK
light: DIQMTQSPSLLSASVGDRVTLNCIASQNIYKSLAWYQLKLGEAPKLLIYNANSLQAGIPSRFSGSGSGTDFALTISGLQPEDVATYFCQQYSGGYTFGAGTKLELKRADAAPTVSIFPPSSEQLTSGGASVVCFLNNFYPKDINVKWKIDGSERQNGVLNSWTDQDSKDSTYSMSSTLTLTKDEYERHNSYTCEATHKTSTSPIVKSFNRNEC
notes: Rat 18G10 variable domains on an intact mouse IgG2a backbone; also called anti-TIGIT:mIgG2a
As for B2, in experiment [2], the binding result is on record as “binds”.

B3: chimeric anti-TIGIT (18G10):mIgG1-[D265A] (antibody)
heavy: QVQLMESGPGLVQPSQTLSLTCTVSGFPLTSYTVHWVRQPPGKGLEWIGAIWSSGSTDYNSALKSRLNINRDSSKSQVFLKMNSLQTEDTAIYFCTKSGWAFFDYWGQGVMVTVSSAKTTPPSVYPLAPGSAAQTNSMVTLGCLVKGYFPEPVTVTWNSGSLSSGVHTFPAVLQSDLYTLSSSVTVPSSTWPSETVTCNVAHPASSTKVDKKIVPRDCGCKPCICTVPEVSSVFIFPPKPKDVLTITLTPKVTCVVVAISKDDPEVQFSWFVDDVEVHTAQTQPREEQFNSTFRSVSELPIMHQDWLNGKEFKCRVNSAAFPAPIEKTISKTKGRPKAPQVYTIPPPKEQMAKDKVSLTCMITDFFPEDITVEWQWNGQPAENYKNTQPIMDTDGSYFVYSKLNVQKSNWEAGNTFTCSVLHEGLHNHHTEKSLSHSPGK
light: B2 light
notes: Rat 18G10 variable domains on a mouse IgG1 backbone with D265A; also called anti-TIGIT:mIgG1*
With B3, the binding result in experiment [2] was “binds”.

The values are drawn from patent US20220340660A1 (Merck Sharp & Dohme, published 2022).
